Measurements from patent US9724426B2, “Agents, uses and methods” (AFFINICON APS, priority 2009, dated 2017).
Numbering of substitutions follows the chain as printed. Values belong to the molecule of their own block, whether it stands above or below them.

Legend:
[1] = tested on: collagen-induced arthritis
Procedure: The effect of dexamethasone on arthritis development in the rat CIA model was tested at three dosages (0.01, 0.1 and 1 mg/kg). Dexamethasone was administered intravenously on day 10 (day of disease onset), 13, 16 and 19. Dexamethasone conjugate produced as described in Example 5 was tested at 0.01 mg/kg using the same treatment regimen as for dexamethasone. Treatment with vehicle (PBS/2.5% EtOH) served as negative control. Rats were sacrificed 21 days after immunization.
Collagen arthritis was induced in 9 weeks old female Lewis rats using a two-step immunization protocol. […]
Rats were evaluated 6 times per week (once during weekends) for arthritis severity using a macroscopic scoring system of 0-4 for each paw as detailed below: • 0=no signs of arthritis • 0.5=unloading of the paw and/or light redness of ankle joint • 1=redness and mild swelling of the ankle joint • 2=redness and swelling of paw • 3=severe redness and swelling of entire paw including digits • 4=maximally swollen paw, often involvement of multiple joints and extending towards knee joint.
The total clinical score of an individual rat is defined as the sum of the clinical scores of all four paws for each day. At the end of the study, the cumulative arthritis score was calculated for each rat. […]
The swelling of the hind paws was measured during weekdays with a laser scan micrometer (Mitutoyo, LSM-503S/6200). […]

[2] = tested on: LPS mediated TNFα stimulation; test: Rat in vivo LPS model; design: species or system Lewis rats; conditions: i.v., challenged with LPS; 2 hours post LPS
CD163 [3] = biological target: T1, CD163 (Homo sapiens, UniProt Q86VB7); test: scFv ELISA; assay type: binding; conditions: two-fold dilution series
T1 sequence (Q86VB7 42-1156): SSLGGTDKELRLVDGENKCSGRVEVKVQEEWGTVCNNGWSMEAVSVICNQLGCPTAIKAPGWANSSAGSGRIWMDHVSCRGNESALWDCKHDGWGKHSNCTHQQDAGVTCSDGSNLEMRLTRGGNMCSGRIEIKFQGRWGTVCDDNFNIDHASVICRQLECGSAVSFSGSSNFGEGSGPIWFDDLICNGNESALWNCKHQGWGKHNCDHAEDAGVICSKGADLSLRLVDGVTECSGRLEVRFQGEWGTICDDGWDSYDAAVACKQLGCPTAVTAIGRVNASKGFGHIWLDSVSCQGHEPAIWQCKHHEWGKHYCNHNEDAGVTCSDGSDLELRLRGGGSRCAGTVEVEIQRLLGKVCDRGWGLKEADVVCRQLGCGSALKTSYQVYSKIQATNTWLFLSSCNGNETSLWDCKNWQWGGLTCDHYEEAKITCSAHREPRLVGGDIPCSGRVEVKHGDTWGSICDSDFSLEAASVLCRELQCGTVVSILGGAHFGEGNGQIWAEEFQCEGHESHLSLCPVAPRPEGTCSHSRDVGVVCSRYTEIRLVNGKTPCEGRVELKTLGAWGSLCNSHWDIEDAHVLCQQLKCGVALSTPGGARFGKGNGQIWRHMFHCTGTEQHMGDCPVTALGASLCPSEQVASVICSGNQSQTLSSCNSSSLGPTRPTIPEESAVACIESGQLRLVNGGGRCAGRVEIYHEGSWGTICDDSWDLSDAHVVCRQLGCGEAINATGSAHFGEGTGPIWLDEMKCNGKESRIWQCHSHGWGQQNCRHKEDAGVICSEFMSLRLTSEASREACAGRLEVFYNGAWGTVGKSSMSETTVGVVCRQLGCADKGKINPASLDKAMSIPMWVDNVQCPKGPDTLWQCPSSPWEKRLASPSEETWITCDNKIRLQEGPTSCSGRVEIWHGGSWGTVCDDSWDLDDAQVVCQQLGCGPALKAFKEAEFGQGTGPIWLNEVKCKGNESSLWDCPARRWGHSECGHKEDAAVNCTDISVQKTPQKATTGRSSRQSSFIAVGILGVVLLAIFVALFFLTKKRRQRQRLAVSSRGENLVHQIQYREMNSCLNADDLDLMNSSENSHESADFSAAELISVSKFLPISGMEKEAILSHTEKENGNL
Procedure: A nunc Maxisorp ELISA plate (NUNC, Roskilde, Denmark) was coated with 50 μl/well of 2 μg/ml of CD163 (purified as described in (2)) over night at 4° C. The coated plate was washed 3 times in PBS and blocked for 1 hour with 3% BSA in PBS. Fractions from scFv purification were tested by adding 100 μl/well of a 1:10 dilution of each sample in 1% BSA, PBS. The refolded protein sample was added directly to the wells (100 μl/well) and two-fold dilution series was made with dilution in 1% BSA in PBS. After 1 hour incubation at 4° C. the plate was washed 3 times in PBS again. Secondary detection was made with a 1 hour incubation of a HRP conjugated anti-His antibody (Sigma-Aldrich, Brøondby, Denmark) (1:4000 diluted in 1% BSA, PBS). After washing 3 times in PBS the ELISA was developed with […] TMB substrate (Invitrogen, Taastrup, Denmark). The reaction was stopped with 40 μl/well of 1 M H2SO4 and the plate was read in an ELISA reader at 450 nm.

CD163 [4] = biological target: T1, CD163; test: ELISA antibody reactivity comparison; assay type: binding
Procedure: A nunc maxisorp plate was coated with the following (50 μl/well) over night at 4° C.: 4 μg/ml goat anti-human kappa chain antibody (AbD Serotec, Oxford, UK) and ˜4 μg/ml human CD163 (purified as described in 8). Buffer was carbonate buffer, pH 9.0. Each measurement was made in duplicate.
4) After blocking, the primary antibody was added (100 μl per well).
For CD163 ELISA • 100 μl/well of goat anti human IgG (H&L) HRP 1:6000 in PBS containing 1% BSA. • For Mac2-158 goat anti-mouse HRP 1:2000 in PBS containing 1% BSA is added to the wells 7) Step 1 was repeated 8) The ELISA was developed by adding 75 μl of TMB substrate to each well. Incubation was performed for 3 min. 9) The reaction was stopped by adding 30 μl 2 NH2SO4 to the wells. 10) The plate was read in an ELISA reader at 450 nm.
Background was measured on wells with no coating and wells with no primary antibody.

CD163 [5] = biological target: T1, CD163; test: Fab fragment activity measured by ELISA; assay type: binding
Procedure: A nunc maxisorp plate was coated with ˜1 μg/ml human CD163 (purified as described by Kristiansen, M. et al. ((2001). Identification of the haemoglobin scavenger receptor. Nature 11:409(6817): 198-201)) was added at 50 μl/well and incubated over night at 4° C. Buffer for coating was carbonate, pH 9.0. Each measurement was made in duplicates.
The primary antibody samples used in ELISA was undiluted supernatant or 30 times concentrated supernatant from transfected cells or antibody standard 100 ng/ml KN2/NRY antibody diluted in PBS containing 1% BSA. The supernatant was concentrated on VIVAspin centrifugal concentrator (10.000 MWCO) (Sigma-Aldrich, Brøondby, Denmark).
The ELISA steps were as follows: ELISA plates were washed 3 times in PBS and blocked with PBS containing 3% BSA for 1 h. After blocking the primary antibody samples were added to the wells (100 μl/well). 2 fold dilution series were made on all samples and standards (dilutions in PBS containing 1% BSA). The samples were incubated on the plates for 1 h. Subsequently, the plates were washed 3 times in PBS and secondary antibody goat anti human kappa chain HRP (AbD Serotec, Oxford, UK) 1:4000 in PBS containing 1% BSA (100 μl/well) was added to the wells. […] The plates were read in an ELISA reader at 450 nm.
Background was measured on both wells with no coating and wells with no primary antibody.

spleen and liver weights compared to the vehicle group ([1]; 0.01, 0.1 and 1 mg/kg groups): No significant differences
thymus weight compared to the vehicle group ([1]; 0.1 and 1 mg/kg groups, at sacrifice day 21): significantly decreased
Molecule: C[C@@H]1C[C@H]2[C@@H]3CCC4=CC(=O)C=C[C@]4(C)[C@@]3(F)[C@@H](O)C[C@]2(C)[C@@]1(O)C(=O)CO [dexamethasone]

Molecule: CC1(C)O[C@@H]2C[C@H]3[C@@H]4C[C@H](F)C5=CC(=O)C=C[C@]5(C)[C@@]4(F)[C@@H](O)C[C@]3(C)[C@]2(C(=O)CO)O1 [fluocinolone, Fluocinolone acetonide]
TNFα level, lower compared to vehicle [2]: 5 times

dilution down to which signals were detected (CD163 [3]): 128 fold
B1: scFv: scFv (VH-15 residue linker-VL), SEQ ID NO: 77, expressed in E. coli and refolded (protein)
scFv: MDQVQLQESGPGLVKPSETLSLTCTVSGYSITSDYAWNWIRQFPGNKLEWMGYITYSGSTYYNPSLKSRVTISVDTSKNQFSLKLSSVTAADTATYYCVSGTYYFDYWGQGTTLTVSSGGGGSGGGGSGGGGSDIVMTQSPSSLSASVGDRVTITCRASQSVSSDVAWFQQKPGKSPKPLIYYASNRYSGVPSRFSGSGSGTDFTLTISSLQAEDFAVYFCGQDYTSPRTFGGGTKLEIKREQKLISEEDL
modifications: scFv sequence

amount of antibody in sample to obtain the same reactivity as cgamma(6)/NRY (CD163 [4]): approximately twice as much antibody
reactivity towards CD163 in ELISA (CD163 [4]; supernatant from transiently transfected CHO-S cells): almost identical
B2: cgamma(6)/K8: chimeric heavy chain cgamma(6) paired with humanized light chain K8 (antibody)
VH: DVQLQESGPGLVKPSQSLSLTCTVTGYSITSDYAWNWIRQFPGNKLEWMGYITYSGITNYNPSLKSQISITRDTSKNQFFLQLNSVTTEDTATYYCVSGTYYFDYWGQGTTLTVSS
light: DIVMTQSPSSLSASVGDRVTITCRASQSVSSDVAWFQQKPGKSPKPLIYYASSLQSGVPSRFSGSGSGTDFTLTISSLQAEDFAVYFCGQDYTSPRTFGGGTKLEIKRTVAAPSVFIFPPSDEQLKSGTASVVCLLNNFYPREAKVQWKVDNALQSGNSQESVTEQDSKDSTYSLSSTLTLSKADYEKHKVYACEVTHQGLSSPVTKSFNRGEC

ELISA signal (CD163 [5]; undiluted, non-concentrated supernatant): very small signal
B3: Fab fragment: Fab of KN2/NRY: heavy chain KN2 with P220 mutated to stop, SEQ ID NO: 82, with light chain NRY (antibody)
heavy: QVQLQESGPGLVKPSETLSLTCTVSGYSITSDYAWNWIRQFPGNKLEWMGYITYSGSTYYNPSLKSRVTISVDTSKNQFSLKLSSVTAADTATYYCVSGTYYFDYWGQGTTLTVSSASTKGPSVFPLAPCSRSTSESTAALGCLVKDYFPEPVTVSWNSGALTSGVHTFPAVLQSSGLYSLSSVVTVPSSSLGTKTYTCNVDHKPSNTKVDKRVESKYG
light: B2 light with S53N, L54R, Q55Y
ELISA signal and dilution series (CD163 [5]; 30× concentrated supernatant, standard 100 ng/ml KN2/NRY): comparable to the standard dilution series
